# Measured values as given in the nanobody polyreactivity screen of Harvey et al. (2022).
# Experiment: yeast display, Sf9 membrane polyspecificity reagent, FACS + sequencing; frameworks hold sequencing errors
# How it was run: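 Nanobodies from a synthetic yeast display library (Saccharomyces cerevisiae BJ5465), induced 36–48 hours with galactose, were stained 1 hour at 4 °C with 10% biotinylated, detergent-solubilized Sf9 membrane reagent, enriched on streptavidin microbeads, then FACS-sorted. Anti-HA (expression) and streptavidin (reagent binding) fluorescence set low and high (top ~1%) gates. Polyreactivity labels come from the gate of origin. Genes were colony-PCR amplified, MiSeq 2 × 250 sequenced and filtered by CDR length.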
row,Sequence,polyreactivity (PSR sort gate)
1,QFQLVETGGGLVQAGGSLRLSSAASGSTFTLYAMGWYRQAPGKERELVATITGSGGSTNYADSVKGRFTISRDNAKNTVYLQMNSLKPEDTAVYYCAADYAVYSFTEFNYWGQGTQVTVSS,high polyreactivity
2,QVQLVESGGGLVQAGASLRLSCAASGFIFGGNAMGWYRQAPGKERELVAAISTTGGRTYYADSVKGRFTISRDNAKNTVYLQMNSRKPEDTAVYYCNAGYDSYCRYYWYWYSFNYWGQGTQVNVSS,high polyreactivity
3,QVQLVESGGGLVQAGGSLRLSCAASGSIFGWYAMGWYRQAPGKERELVAAAIDYRDDSTYYADSVKGRFTISRDIAKNTVYLQMNSLKPEDTAVYYCAAEKDGDWRGYDYWGQGTQVTVSS,low polyreactivity
4,QVQLVESGGGLVQAGGSLRLSCAASGSTFIGYAMGWYRQAPGKEWELVAAISWSGGRTYYADSVKGRFTISRDNEKNTVYLQMNSLKPEDTAVYYCAASYYGCSARYDTLGIYEYWGLGTQVTVSS,high polyreactivity
5,QVQLVESGGGLVQAGGSLRLSCAASGIIFGGNAMGWYRQAPGKERELVATISNGGSTKYADSVKGRFTISRDNAKNTVYLQMNSLKPEYTAVYYCAAQPRVGSYVRSSRGRYNHWGQGTQVTVSS,high polyreactivity
6,QVQLVESGRGLVQAGGSLRLSCAASGIIFYENAMGWYRQAPGKERELVADITQSGGSTYYADSVKGRFTISRDNAKNTVYLQMNSLKPEDTGVYYCAADGYDPYGGLYDYWGQGNQVTVSS,low polyreactivity
7,QVQLVESGGGLVQAGGSHRLSCAASGSILEIYAMGWYRQAPGKEREFVASISWDVSSTYYADSVKGRFTISRDNAKNTVYLQMYSLKPEDPAVYYCATSLVWGLYDWYYDLSAAFDYWGQGTQVTVSS,low polyreactivity
8,QVQLVESGGGLVQAGGSLRLSCAASGFIFRPYVMGWYRQAPGTERELVAAISRSGSSTYYADSVKGRFTISRDNAKNTVYLQMNSLKPEDTAVYYCARRTSQEFDYWGQGTQVTVSS,high polyreactivity
9,QVHLVQSGGGIDQAGGSLRLSCAASGSTYVVNTMGWYRQAPGKDRELVAANTQSGGSTFYADSVKGRFTISRDNAKNTVYLHMTSLKAEDTAVYYCNAGDFEGAVVVFIQHGGYYWGQGTQVTVSS,low polyreactivity
10,QVQLVESGGGLVQAGGSLRLSCAASGRIFYGNALGWYRHAPGKERELVATISSSGGRTTYADSVKGRFTISRDNAKNTVYLPMNSLKPEDTAVYYCAAQGYWTGYDYWGQGTQVTVSS,high polyreactivity
11,QVQLVESGGGLVQAGGSLRLSCAASGRIFGAYAMGWYRQAPGKERELVADIRSTGSTNYADSVKGRFTISRDNAKNTVYLQMNSLKPEDTAVYYCAARWRSRRFGSGFEYWGQGTQVTVSS,high polyreactivity
12,QVQLVESGGGLVQAGGSLRLSCAASGRIFNPNAMGWDRQAPGKERELVAAISTSGDSTYADSVKGRFTISRDNAKNTVYLQMNSLKPEDTAVYYCAATSGRRTTRWGRYGYWGQGTQVTVSS,high polyreactivity
13,QVQLVESGGGLVQAGGSLRLSCAASGRIFGYYAMGWYRQAPGKERELVATIRGGGSTNYADSVKGRCTISRDNAKNTVFLQMNSLKPEDTAVYYCAKPCAKWRGFDYWGQGTQVTVSS,low polyreactivity
14,QVQRVESGGGLVQAGGSLRFSCAASGSTFSYYAMGWYSQAPGKERELVAVISRGGSTNYADSVKGRFTISRDNAKNTVYLQMNSLKPEDTAVYYCAAYVLPWRGRGQTEYGYSGQGTQVTVSS,low polyreactivity
15,QVQLVESGGGLVQAGGSLRLSCAASGRTFIYNTMGWYRQAPGKERELVAAITSGGSTNYADSVKGRFTISRDNAKNTVYLQMNSLKPEDTAVYYCATQGLSAPFDGFVNSRFDHWGQGTQVTVSS,low polyreactivity
16,QVQLVESGGGLVQAGGSLRLSCAASGFIFYSYAMGWYRQAPGKERELVAAIDWDDGTTYYADSVKGRFTISRDNAKNTVYLQMNSLKPEDTAVYYCAAESYYGAYDYWGQGTQVTVSS,high polyreactivity

row,Sequence,polyreactivity (PSR sort gate)
1,QVQIVESGGGLVQAGGSLRLSCAASGRTFWGNAMGWYRQAPGKERELVASISSRGSSTYYADSVKGRFTISRDNAKNTVYLQMNSLKPEDTAVYYCAARTHYFPWPWYVWDYYSDGYWGQGTQVTVSS,low polyreactivity
2,QVQLVESGGGLVQAGGSLRLSCAASGFTFYRNDIGWYRQAPGKERELVAAITFSGGITYYADSVKGRFTISRDNAKNTVYLQMNSLKAEDTAVYYCAAEGVGAARVYQGGEYNYWGQGTQVTVSS,low polyreactivity
3,QGQLVESGGGLVQAGGSLRLSCAASGSTFSDYAKGWYRQAPGKERELVAGITGGGGTYYADSVKGRFTISRDNAKNTVYLQMNSLKPEDTAVYYCAAGRRHGFGYWGQGTQVTVSS,low polyreactivity
4,QVQLVESGGGLVQAGGSLRLSCAASGSTFYSYVMGWYRQAPGKERELVAVISNDGSTNYADSVKGRFTISRDNAKNTVYLQMNSLKPEDTAVYYCNAEWTRDFYEYDYWGQGTQVTVSS,low polyreactivity
5,QVQLVESGGGLVQAGGSLRLICAASGIIFGYYAMGWYRQAPGKERELVAAITSGASTDYADSVKGRFTISRDNAKNTFYLQMNSLKPEDTAVFFCNADTSASTYTFPFDYCGQGTQVTVSS,low polyreactivity
6,QVQLVESGGGLVQAGGSLRLSCAASGRIFKYNAMGWYRQAPGKEREFVARITSGGRTYYADSVKGRFTISRDNAKNTVYLQMNSLKPEDTAVYYCNAEDVRYWVRGYRMGYWGQGTQVTVSS,high polyreactivity
7,QVQLVESGGGLVQAGGSLRLTCAASGSIFWGYALGWYRQAPGKERELVATIRNRGGSTYYADSVKGRFTISRDNAKNTVYLQMNSLKPEDTAVYYCAADEGGFWWTYPYDSWGQGTQVTVSS,low polyreactivity
8,QDLLVESGGGLVQAGGSLRLSCAASGSIFDDYAMGWYRQAPGKERELVAAISSSGTSTYYADSVKGRFTISRDHAKNTVYLQMNSLIPEYTAVYYCAARSAILKSGYLKDYWGQGTQVTVSS,low polyreactivity
9,QVQLVESGGGLVQAGGSLRLSCAASGRTFLINAMGWYRQAPGKEREMVAAITQSGGSTYYADSVKGRFTISRDNAKYTVYLQMNSLKPEDTAVYNCNATPDSVRWDYALSVVRYEYWGQGTQVTVSS,low polyreactivity
10,QGQLVESGGGLVQAGGSLSLSCAASGFTFRYYTMGWYIQAPGKERALVASISRRGGSTYYADSVKGRFTISRDNAMNTVYLQMHSLKPEGTAVYYCNPLSQVFASRAPKFDYWGQGTQVTVSS,high polyreactivity
11,QVQLVESGGGLVQAGGSLRLSCAASGSTFLDYDMGWYRQAPGKERELVATINSVGSTYYADSVKGRFTISRDNAKNTVYLQMNSLKPEDTAVYYCAARQEPGWYPDVWWEYDYWGQGTQVTVSS,low polyreactivity
12,QVQLVESGGGLVQAGASLRLSCASSGSISKSYAMGWYRQAPGKERELVAAISWRGGSTYADSVKGRFTISRDNAKNTVYLQMNSLKPVDTAVYYCAATNYGTFWVGQSERYDYWGQGTEVTVSS,low polyreactivity
13,QVQLVESGGGLVQAGGSLRLSCAASGRTLKKNSMGWYRQAPGKERELVAAISTGGRTYYADSVKGRFTISRDNAKNTVYLQINSLKPEDTAVYYCNFQFLSWSTIWGNDYWGQGTQVNVSS,high polyreactivity
14,QVQPVESGGGLDQAGGSLRLSCAASGRILWSYAMGWYRQAPGKERELVAAIRTSGGSTYYADSVKGRFTISRDNAKNTVYLQMNSLKPEDTAVYYCAADRTLFSTVDYWGQGTQVTVSS,low polyreactivity
15,QDQLVESRGGLVQAGGSLRLSCAASGFTFYYYAMGWYRQAPGKERELVAAISSGGSTYYADSVKGRFTISRDNAKNTVYLQMNSLKPEDTAVYYCARLYRVGRYLFDVDSWGQGTQVTVSS,high polyreactivity
